# From patent US20190134213A1 (Bicycle, published 2019)
# Starred links: 1 amine or outer side, 2 acyl side, 3 side chain; linkers in the order of their positions; H or OH if unused. Positions of bridges follow the written chain, without caps; N, C: chain ends. Non-standard residues stand in square brackets, D forms with d. Sar10 = ten sarcosines (spacer), CN(CC(=O)N(C)CC(=O)N(C)CC(=O)N(C)CC(=O)N(C)CC(=O)[*:2])C(=O)CN(C)C(=O)CN(C)C(=O)CN(C)C(=O)CN(C)C(=O)CN(C)[*:1]; SMPP‑derived hindered disulphide linker = hindered disulphide linker derived from SMPP, with two methyl groups, carrying the toxin DM1; 1Nal = N[C@@H](Cc1cccc2ccccc12)C(=O)O; TBMB = c1c(C[*:1])cc(C[*:3])cc1C[*:2]; Tle = CC(C)(C)[C@H](N)C(=O)O; βAla = NCCC(=O)O; DM1 = toxin
# B1: 17-69-07-N268 (peptide)
# peptide: H-AC[dA]NE[1Nal][dA]CEDFYD[Tle]C-NH2
# modifications: linker 2-8-15 via TBMB
# SMILES: C[C@H](N)C(=O)N[C@H]1CSCc2cc3cc(c2)CSC[C@H](NC(=O)[C@@H](C)NC(=O)[C@H](Cc2cccc4ccccc24)NC(=O)[C@H](CCC(=O)O)NC(=O)[C@H](CC(N)=O)NC(=O)[C@@H](C)NC1=O)C(=O)N[C@@H](CCC(=O)O)C(=O)N[C@@H](CC(=O)O)C(=O)N[C@@H](Cc1ccccc1)C(=O)N[C@@H](Cc1ccc(O)cc1)C(=O)N[C@@H](CC(=O)O)C(=O)N[C@@H](C(C)(C)C)C(=O)N[C@H](C(N)=O)CSC3
# notes: Synthetic bicyclic peptide cyclised on TBMB; lacks the bAla-Sar10 spacer of 17-69-07-N241; Precursor of BT17BDC-27; also called A-(17-69-07) D-Ala1 1Nal4 D-Ala5 tBuGly11; AC(D-Ala)NE(1Nal)(D-Ala)CEDFYD(tBuGly)C
# B2: BT17BDC-28 (peptide)
# peptide: {DM1-SMPP‑derived hindered disulphide linker}-[βAla][Sar10]AC[dA]NE[1Nal][dA]CEDFYD[Tle]C-NH2
# modifications: linker 4-10-17 via TBMB
# notes: also called Bicycle Drug Conjugate of 17-69-07-N241 with DM1
# B3: BT17BDC-27 (peptide)
# peptide: {DM1-SMPP‑derived hindered disulphide linker}-AC[dA]NE[1Nal][dA]CEDFYD[Tle]C-NH2
# modifications: linker 2-8-15 via TBMB
# notes: also called Bicycle Drug Conjugate of 17-69-07-N268 with DM1
# B4: 17-69-07-N241 (peptide)
# peptide: H-[βAla][Sar10]AC[dA]NE[1Nal][dA]CEDFYD[Tle]C-NH2
# modifications: linker 4-10-17 via TBMB
# SMILES: C[C@H](NC(=O)CN(C)C(=O)CN(C)C(=O)CN(C)C(=O)CN(C)C(=O)CN(C)C(=O)CN(C)C(=O)CN(C)C(=O)CN(C)C(=O)CN(C)C(=O)CN(C)C(=O)CCN)C(=O)N[C@H]1CSCc2cc3cc(c2)CSC[C@H](NC(=O)[C@@H](C)NC(=O)[C@H](Cc2cccc4ccccc24)NC(=O)[C@H](CCC(=O)O)NC(=O)[C@H](CC(N)=O)NC(=O)[C@@H](C)NC1=O)C(=O)N[C@@H](CCC(=O)O)C(=O)N[C@@H](CC(=O)O)C(=O)N[C@@H](Cc1ccccc1)C(=O)N[C@@H](Cc1ccc(O)cc1)C(=O)N[C@@H](CC(=O)O)C(=O)N[C@@H](C(C)(C)C)C(=O)N[C@H](C(N)=O)CSC3
# notes: Synthetic bicyclic peptide cyclised on TBMB; precursor of BT17BDC-28; also called bAla-Sar10-A-(17-69-07) D-Ala1 1Nal4 D-Ala5 tBuGly11; (bAla)-Sar10-AC(D-Ala)NE(1Nal)(D-Ala)CEDFYD(tBuGly)C
# Key:
# [1] = target: T1, MT1-MMP hemopexin-like repeats (MT1-MMP hemopexin domain), residues Cys319-Gly511 from the human gene, … (human, UniProt P50281 319-511); assay: fluorescence polarisation competition with a fluoresceinated bicyclic tracer on MT1-MMP hemopexin domain
# T1 construct: range 319-511; Secreted soluble protein expressed in HEK293 cells, purified by Ni-NTA and gel filtration; also called hemopexin of MT1-MMP; MMP14
# From the text: (§1) Here, a pre-formed complex of PEX with the fluorescent PEX-binding tracer is titrated with free, non-fluoresceinated bicyclic peptide. Since all 17-69-based peptides are expected to bind at the same site, the titrant will displace the fluorescent tracer from PEX. Dissociation of the complex can be measured quantitatively, and the Kd of the competitor (titrant) to the target protein determined. The advantage of the competition method is that the affinities of non-fluoresceinated bicyclic peptides can be determined accurately and rapidly.
# (§2) Subsequently, the non-fluorescent competitor bicyclic peptide (usually just the bicycle core sequence) is titrated, such that it displaces the fluorescent tracer from the target protein. The displacement of the tracer is measured and associated with a drop in fluorescence polarisation. The drop in fluorescence polarisation is proportional to the fraction of target protein bound with the non-fluorescent titrant, and thus is a measure of the affinity of titrant to target protein.
# (§3) The raw data is fit to the analytical solution of the cubic equation that describes the equilibria between fluorescent tracer, titrant, and binding protein. The fit requires the value of the affinity of fluorescent tracer to the target protein, which can be determined separately by direct binding FP experiments (see previous section). […]
# [2] = target: T1, MT1-MMP hemopexin-like repeats (MT1-MMP …); assay: fluorescence polarisation competition, tracer 17-69-07-N040, human MT1-MMP hemopexin domain (n = 2)
# From the text: as §1, §2, §3
binder,measurement,setting,value
B1,Kd,[1],1.7 nM
B2,Kd,[2],1.65 nM
B3,Kd,[2],0.69 nM
B4,Kd,[1],1.21 nM
